Results: the supplement of paper PMC10724198
± gives the standard deviation of the averaged measurements.

test system: Saccharomyces cerevisiae; test: protein stability index of tFT-peptide fusion (C-terminal peptide) (PSI (0-1 scale)); higher = more stable (slower turnover); conditions: genetic background: wild type; temperature: 30 C
Protocol: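 Multiplexed protein stability (MPS) profiling in S. cerevisiae. Random 12-aa peptides (tFT-X12 library) are fused to the C-terminus of a sfGFP-mCherry tandem fluorescent timer, after mCherry and a GGGS linker. Cells are FACS-sorted into 8 mCherry/sfGFP bins and deep-sequenced. The protein stability index (PSI) is the read-weighted bin average, scaled from 0 (unstable) to 1 (stable). Only peptides with >10 reads are reported; cells were grown at 30 °C in SC-His with glucose.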
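Note: PSI is a weighted mean of sequencing reads over stability bins, variants kept only with over 10 reads, mCherry proximal and sfGFP distal, peptide attached via GGGS linker.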

Row | Sequence | protein stability index
1 | VWVQISGRLNWK | 0.709 ± 0.06
2 | PPPAPPPPLPPR | 0.688 ± 0.028
3 | VCILPVTCAGMF | 0.6224 ± 0.0012
4 | LPTATSFNALNS | 0.714 ± 0.072
5 | PPASSPPSRPPP | 0.62626 ± 0.00058
6 | FIGGCYCSVKSL | 0.705 ± 0.047
7 | RDGGSTDGGKRR | 0.697 ± 0.024
8 | IFPRPHVDIPLL | 0.922 ± 0.075
9 | KSKLSSRTKLTH | 0.64 ± 0.03
10 | RKEKRKRRGEAN | 0.662 ± 0.061
11 | GVENAHLFYLYL | 0.63579 ± 0.00058
12 | SWGHTGTLRNDI | 0.747 ± 0.035
13 | WGRRVSPVRDGR | 0.671 ± 0.032
14 | IGGYNRTFELMG | 0.678 ± 0.032
15 | RGVPWVVFSVGA | 0.542 ± 0.015
16 | LRPPFFLSPLPS | 0.728 ± 0.034
17 | PPLSPPHRPPHS | 0.71 ± 0.065
18 | SQRRGLLGRFRI | 0.695 ± 0.011
19 | SPSLLLSFLSFF | 0.665 ± 0.071
20 | PRLPGPAAIARR | 0.6714 ± 0.004
21 | FLRYVLLPSLFV | 0.499 ± 0.01
22 | SRGNIPVCEGWS | 0.742 ± 0.028
23 | CDDIIKGEIRIM | 0.722 ± 0.041
24 | RCAGCFDSAFSW | 0.746 ± 0.012
25 | PQSIHASIYFRL | 0.634 ± 0.02

Row | Sequence | protein stability index
26 | ALGRRGPEDWSG | 0.707 ± 0.031
27 | SNQHKKKNQLRE | 0.693 ± 0.086
28 | CECVGGFGFLGS | 0.682 ± 0.031
29 | VFMPVGVGGGSC | 0.678 ± 0.05
30 | LSPFPSCLPPSV | 0.702 ± 0.045
31 | FILCFPSLLSSL | 0.603 ± 0.022
32 | CVSALVADDLVS | 0.674 ± 0.029
33 | TVSRNKKKKQIQ | 0.613 ± 0.038
34 | KRESNSKQTEKV | 0.7 ± 0.099
35 | AMGSDRPPQSGY | 0.695 ± 0.012
36 | EGSEAYQWETLG | 0.681 ± 0.038
37 | SPPAPPVSPPPP | 0.744 ± 0.042
38 | DDQYVGRYYNKT | 0.676 ± 0.019
39 | DHLVLSGPPPPV | 0.733 ± 0.056
40 | SLLAPPALTAPS | 0.674 ± 0.05
41 | VTPLPSLPHHRA | 0.604 ± 0.041
42 | LLWNFNLCHCEE | 0.701 ± 0.011
43 | KGKKRKKKRNFR | 0.68 ± 0.031
44 | AAPGWDGTIGCG | 0.753 ± 0.043
45 | NVNNNICTYRAI | 0.6776 ± 0.0046
46 | DPPHPPPSPLPA | 0.699 ± 0.02
47 | LLSLLLLSSSPP | 0.70828 ± 0.00034
48 | KRRTGKEGRIRR | 0.723 ± 0.021
49 | DSVGGVLGRGAR | 0.633 ± 0.022
50 | AESSLSLFPPPP | 0.756 ± 0.059

Row | Sequence | protein stability index
51 | HPAALTPVPALH | 0.661 ± 0.036
52 | TEVSDVSWSEVW | 0.696 ± 0.025
53 | SWECRGMGVCGG | 0.721 ± 0.02
54 | FGAGVWVGRVGG | 0.649 ± 0.048
55 | SARECSVRTPHN | 0.711 ± 0.061
56 | NRKKIKSIDVRK | 0.67 ± 0.07
57 | SGCRLGCASVVQ | 0.611 ± 0.044
58 | RLLRDFQSVGGD | 0.6498 ± 0.0014
59 | DLVSVVGRGIVL | 0.675 ± 0.026
60 | CGLCDISFDLVM | 0.626 ± 0.027
61 | VALSSECVLSGV | 0.656 ± 0.025
62 | PPPQYILPPRFP | 0.691 ± 0.017
63 | PHLPPLLTTTPS | 0.61 ± 0.023
64 | LPLPLLLFPPPH | 0.677 ± 0.041
65 | GTLSLAACLSEN | 0.657 ± 0.077
66 | YVFPYLLRAIPF | 0.601 ± 0.095
67 | FALSSSLIRAFL | 0.726 ± 0.00088
68 | PSSRFLFFCSFF | 0.677 ± 0.033
69 | AWGLDGCQLCFS | 0.751 ± 0.11
70 | KKEGEREQGVRW | 0.703 ± 0.037
71 | VDRLDAACCIFC | 0.601 ± 0.031
72 | KKVRTNTSKEIK | 0.692 ± 0.15
73 | RGGVGRLEGCRG | 0.684 ± 0.066
74 | GLSSAVSPSFGR | 0.598 ± 0.017
75 | FFGCVLRPCLRG | 0.72 ± 0.0076

Row | Sequence | protein stability index
76 | SLWWRWQATIRR | 0.714 ± 0.13
77 | RRMHLNMKEREL | 0.896 ± 0.054
78 | PSALPLFWSELF | 0.661 ± 0.022
79 | CRSGERSHKMLL | 0.63 ± 0.011
80 | PSPHTPPHTFLL | 0.755 ± 0.0022
81 | PSPSYAPARHQA | 0.651 ± 0.063
82 | VAYRGGGGWRIS | 0.6865 ± 0.005
83 | LPFLFTSFAPAA | 0.776 ± 0.081
84 | SSRTPPRFYSLP | 0.708 ± 0.0074
85 | AFPSSLVFFFYT | 0.651 ± 0.033
86 | VGGVGGLWVGAV | 0.7143 ± 0.0018
87 | WRQRVWRGGWKG | 0.594 ± 0.031
88 | VQWSRFRVGMAE | 0.848 ± 0.19
89 | RFSTRAVRLGPC | 0.705 ± 0.19
90 | RIGDVIRIAEIK | 0.729 ± 0.069
91 | NFATLFSLCCLY | 0.611 ± 0.011
92 | PHLAAPAPALQD | 0.613 ± 0.056
93 | AGHACGSLRGHP | 0.682 ± 0.034
94 | PPPSHSLPSLPI | 0.626 ± 0.033
95 | IPLSFDRLLLID | 0.63 ± 0.015
96 | RGTYRYNFSQKK | 0.652 ± 0.12
97 | GERLGECGGGVG | 0.6652 ± 0.0021
98 | PLPPPPPPIPLT | 0.702 ± 0.14
